Test results reported in patent US20070073040A1, “Anti-obesity polypeptides” (Yonsei University, priority 2001, published 2007).
“And” between values parts separate entries of the source, which are not always exact repeats. Identical values can stand only once.

Key:
[1] = clinical test, cited from earlier work
[2] = test system: adipose tissue; assay: Autopsy and pathological examination of experimental rabbits; assay type: in vivo, rabbit; settings: polypeptide-Adjuvant mixture injected three times into hypoderm every two weeks, versus saline-Adjuvant
Protocol: In FIG. 3A, arrows indicate distribution of adipose tissue in various organs in the test rabbit that SynLeptin-2 polypeptide-Adjuvant mixture was injected three times into the hypoderm every two weeks. In FIG. 3B, arrows indicate distribution of adipose tissue in various organs injected with saline-Adjuvant mixture three times into the hypoderm every two weeks.
We analyzed the reasons for the decrease in body weight by autopsy and pathological examinations. […] When the rabbits were sacrificed and autopsy was carried out, no pathological abnormali in their organs was observed. However, remarkable reduction of fat mass not only in abdominal and subcutaneous adipose tissues but also tissues surrounding various organs was evident.

[3] = Body weight of ZDF rats with nonfunctional Leptin receptor treated with SynLeptin polypeptides; assay type: in vivo, rat; settings: 12-week-old ZDF rats; injected two times every two weeks into hypoderm; after about 30 days; saline control 8.5% increase
Protocol: FIG. 2 illustrates weigh loss when SynLeptin-1 or 2 polypeptide was injected two times every two weeks into the hypoderm of 12-week-old ZFD rats with non-functional Leptin receptor.
(§1) 4 white rabbits with 1.2 kg body weight were divided into a control group and an experimental group having two rabbits, respectively. The purified SynLeptin-1 or -2 protein (500-700 μg or saline was mixed with Adjuvant 2 ml (Sigma), and then injected into 4 different parts of the rabbit hypoderm. After 2 weeks, an equivalent amount of the protein-Adjuvant mixture was injected, and then third injection was performed after 2 weeks. Thereafter, body weight loss was measured after 10 days. The result was as follows. The body weight of the experimental group treated with SynLeptin-1 was 1.8 kg and 2.08 kg, respectively (average 1.94 kg), while the body weight of the control group was 2.5 kg and 2.45 kg, respectively (average 2.48 kg). […] Also we treated the ZDF rats with nonfunctional Leptin receptor gene with SynLeptin-1 or -2 polypeptides for 30 days (FIG. 2).

[4] = Body weight of white rabbits after subcutaneous injection of protein-Adjuvant mixture; assay type: in vivo, rabbit; settings: 10 days after third injection
Protocol: as §1

Leptin: 16 kDa ob polypeptide hormone synthesized in adipose tissue, regulating body weight
weight response upon Leptin treatment (other obese people) ([1]; other obese people): did not lost weight | body weight lost ([1]; some obese people): 7.1 kg

B1: SynLeptin-2: Tat polypeptide of 86 amino acids from N-terminus of Tat, expressed from pGEX4T-3-SynLeptin-2 (protein)
chain: MEPVDPRLEPWKHPGSQPKTACTNCYCKKCCFHCQVCFMTKALGISYGRKKRRQRRRAHQNSQTHQASLSKQPTSQSRGDPTGPKE
modifications: 86 amino acid Tat mutant
notes: Tat polypeptide of 86 amino acids from N-terminus of Tat, expressed from pGEX4T-3-SynLeptin-2
fat / adipose tissue at autopsy [2]: markedly reduced fat in various tissues including adipose tissue | weight loss (decrease of body weight) [3]: 4.3%

B2: SynLeptin-1: Tat polypeptide fragment, 71 (b9: 72) amino acids from N-terminus of Tat, expressed from pGEX4T-3-SynLeptin-1 (protein)
chain: MEPVNPSLEPWKHPGSQPKTACTNCYCAKCCFHCQVCFITKALGISYGRAKRRQRRRPPQGSQTHQVSLSK
modifications: 71 amino acid Tat mutant
body weight of individual rabbit of the experimental group ([4]; rabbits, starting body weight 1.2 kg, control 2.5 and 2.45 kg): 1.8 kg and 2.08 kg | average body weight of the experimental group ([4]; two rabbits, control average 2.48 kg): 1.94 kg | weight increase [3]: 3.5%
